Columns and labels:
[1] = molecular target: Recombinant, his tagged full length human frataxin protein (Abcam ab95502) (human) (UniProt Q16595); experiment: Simoa sandwich 3-step; capture Ab-3; frataxin 1000 pg/mL
[2] = molecular target: Recombinant, his tagged full length human frataxin protein (Abcam ab95502) (human) (UniProt Q16595); experiment: as above; remark: listed apart in the source
[3] = molecular target: Recombinant, his tagged full length human frataxin protein (Abcam ab95502) (human) (UniProt Q16595); experiment: Simoa sandwich 3-step; capture Ab-3
[4] = molecular target: Recombinant, his tagged full length human frataxin protein (Abcam ab95502) (human) (UniProt Q16595); experiment: Simoa sandwich 2-step; capture Ab-3; frataxin 500 pg/mL
[5] = molecular target: Recombinant, his tagged full length human frataxin protein (Abcam ab95502) (human) (UniProt Q16595); experiment: Simoa sandwich 3-step; capture Ab-4
[6] = molecular target: Recombinant, his tagged full length human frataxin protein (Abcam ab95502) (human) (UniProt Q16595); experiment: Simoa sandwich 2-step; capture Ab-3; frataxin 0.686 pg/mL
[7] = molecular target: Recombinant, his tagged full length human frataxin protein (Abcam ab95502) (human) (UniProt Q16595); experiment: Simoa sandwich 3-step; capture Ab-2
[8] = molecular target: Recombinant, his tagged full length human frataxin protein (Abcam ab95502) (human) (UniProt Q16595); experiment: Simoa sandwich 2-step; capture Ab-3; frataxin 6.17 pg/mL
[9] = molecular target: Recombinant, his tagged full length human frataxin protein (Abcam ab95502) (human) (UniProt Q16595); experiment: Simoa sandwich 3-step; capture Ab-5
[10] = molecular target: Recombinant, his tagged full length human frataxin protein (Abcam ab95502) (human) (UniProt Q16595); experiment: Simoa sandwich 3-step; capture Ab-2; frataxin 1000 pg/mL
[11] = molecular target: Recombinant, his tagged full length human frataxin protein (Abcam ab95502) (human) (UniProt Q16595); experiment: Simoa sandwich 3-step; capture Ab-1
[12] = molecular target: Recombinant, his tagged full length human frataxin protein (Abcam ab95502) (human) (UniProt Q16595); experiment: Simoa sandwich 2-step; capture Ab-3; frataxin 55.6 pg/mL
[13] = molecular target: Recombinant, his tagged full length human frataxin protein (Abcam ab95502) (human) (UniProt Q16595); experiment: Simoa sandwich 3-step; capture Ab-2; frataxin 10000 pg/mL
[14] = molecular target: Recombinant, his tagged full length human frataxin protein (Abcam ab95502) (human) (UniProt Q16595); experiment: Simoa sandwich 3-step; capture Ab-5; frataxin 1000 pg/mL
[15] = molecular target: Recombinant, his tagged full length human frataxin protein (Abcam ab95502) (human) (UniProt Q16595); experiment: Simoa sandwich 3-step; capture Ab-2; frataxin 100 pg/mL
[16] = molecular target: Recombinant, his tagged full length human frataxin protein (Abcam ab95502) (human) (UniProt Q16595); experiment: Simoa sandwich 3-step; capture Ab-1; frataxin 100 pg/mL
[17] = molecular target: Recombinant, his tagged full length human frataxin protein (Abcam ab95502) (human) (UniProt Q16595); experiment: Simoa sandwich 3-step; capture Ab-3; frataxin 100 pg/mL
[18] = molecular target: Recombinant, his tagged full length human frataxin protein (Abcam ab95502) (human) (UniProt Q16595); experiment: Simoa sandwich 3-step; capture Ab-4; frataxin 10000 pg/mL
[19] = molecular target: Recombinant, his tagged full length human frataxin protein (Abcam ab95502) (human) (UniProt Q16595); experiment: Simoa sandwich 2-step; capture Ab-3; frataxin 2.06 pg/mL
[20] = molecular target: Recombinant, his tagged full length human frataxin protein (Abcam ab95502) (human) (UniProt Q16595); experiment: Simoa sandwich 3-step; capture Ab-3; frataxin 100 pg/mL; remark: listed apart in the source
[21] = molecular target: Recombinant, his tagged full length human frataxin protein (Abcam ab95502) (human) (UniProt Q16595); experiment: Simoa sandwich 3-step; capture Ab-4; frataxin 1000 pg/mL
[22] = molecular target: Recombinant, his tagged full length human frataxin protein (Abcam ab95502) (human) (UniProt Q16595); experiment: Simoa sandwich 3-step; capture Ab-3; remark: listed apart in the source
[23] = molecular target: Recombinant, his tagged full length human frataxin protein (Abcam ab95502) (human) (UniProt Q16595); experiment: Simoa sandwich 3-step; capture Ab-5; frataxin 100 pg/mL
[24] = molecular target: Recombinant, his tagged full length human frataxin protein (Abcam ab95502) (human) (UniProt Q16595); experiment: Simoa sandwich 2-step; capture Ab-3
[25] = molecular target: Recombinant, his tagged full length human frataxin protein (Abcam ab95502) (human) (UniProt Q16595); experiment: Simoa sandwich 2-step; capture Ab-3; frataxin 167 pg/mL
[26] = molecular target: Recombinant, his tagged full length human frataxin protein (Abcam ab95502) (human) (UniProt Q16595); experiment: Simoa sandwich 2-step; capture Ab-3; frataxin 18.5 pg/mL
[27] = molecular target: Recombinant, his tagged full length human frataxin protein (Abcam ab95502) (human) (UniProt Q16595); experiment: Simoa sandwich 3-step; capture Ab-4; frataxin 100 pg/mL
[28] = molecular target: Recombinant, his tagged full length human frataxin protein (Abcam ab95502) (human) (UniProt Q16595); experiment: Simoa sandwich 3-step; capture Ab-1; frataxin 1000 pg/mL
[29] = molecular target: Recombinant, his tagged full length human frataxin protein (Abcam ab95502) (human) (UniProt Q16595); experiment: Simoa sandwich 2-step; capture Ab-3; frataxin 100 pg/mL
[30] = molecular target: Recombinant, his tagged full length human frataxin protein (Abcam ab95502) (human) (UniProt Q16595); experiment: Simoa sandwich 2-step; capture Ab-3; frataxin 1000 pg/mL
[31] = molecular target: Recombinant, his tagged full length human frataxin protein (Abcam ab95502) (human) (UniProt Q16595); experiment: Simoa sandwich 3-step; capture Ab-1; frataxin 10000 pg/mL
[32] = molecular target: Recombinant, his tagged full length human frataxin protein (Abcam ab95502) (human) (UniProt Q16595); experiment: Simoa sandwich 2-step; capture Ab-3; remark: listed apart in the source

Sequence of UniProt Q16595 (Q16595 42-210): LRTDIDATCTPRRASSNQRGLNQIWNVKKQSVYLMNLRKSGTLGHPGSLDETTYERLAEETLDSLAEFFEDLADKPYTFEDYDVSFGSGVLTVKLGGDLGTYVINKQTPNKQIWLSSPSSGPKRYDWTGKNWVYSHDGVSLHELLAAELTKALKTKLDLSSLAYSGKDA

“Ab-4, mouse monoclonal [17A11] to Frataxin (Abcam ab113691) (antibody)” was tested, and the Ave AEB [1] was 8.02 AEB, the S/B [1] was 138 and the Ave AEB [2] was 12.8 AEB. For the same substance, the S/B [2] was 160, the LOD [3] was 2.41 pg/mL and the Ave AEB [4] was 23.7 AEB. The S/B [4] was 206, the LOD [5] was 358 pg/mL and the Ave AEB [6] was 0.157 AEB. The S/B [6] was 1.36, the LOD [7] was 5.01 pg/mL and the Ave AEB [8] was 0.56 AEB. For the same substance, the S/B [8] was 4.87, the LOD [9] was 6.44 pg/mL and the Ave AEB [10] was 7.32 AEB. It also gave a S/B [10] of 40.7, an LOD [11] of 23.9 pg/mL and an Ave AEB [12] of 3.75 AEB. For the same substance, the S/B [12] was 32.6, the Ave AEB [13] was 32.9 AEB and the S/B [13] was 183. The Ave AEB [14] was 18.6 AEB, the S/B [14] was 45.4 and the Ave AEB [15] was 1.02 AEB. It also gave a S/B [15] of 5.67, an Ave AEB [16] of 0.64 AEB and a S/B [16] of 2.9. For the same substance, the Ave AEB [17] was 0.68 AEB, the S/B [17] was 11.7 and the Ave AEB [18] was 0.82 AEB. For the same substance, the S/B [18] was 35.6, the Ave AEB [19] was 0.259 AEB and the S/B [19] was 2.25. For the same substance, the Ave AEB [20] was 1.34 AEB, the S/B [20] was 16.8 and the Ave AEB [21] was 0.0589 AEB. The S/B [21] was 2.55, the LOD [22] was 1.59 pg/mL and the Ave AEB [23] was 2.02 AEB. It also gave a S/B [23] of 4.93, an LOD [24] of 0.36 pg/mL and an Ave AEB [25] of 11.1 AEB. The S/B [25] was 97, the Ave AEB [26] was 1.31 AEB and the S/B [26] was 11.4. For the same substance, the Ave AEB [27] was 0.0213 AEB, the S/B [27] was 0.93 and the Ave AEB [28] was 8.74 AEB. The S/B [28] was 39.6, the Ave AEB [29] was 5.1 AEB and the S/B [29] was 67.6. It also gave an Ave AEB [30] of 29.7 AEB, a S/B [30] of 394 and an Ave AEB [31] of 30.9 AEB. The S/B [31] was 140 and the LOD [32] was 0.44 pg/mL.

— patent publication US20220308072A1
